Reference: the supplement of paper PMC12636428

Test system: Saccharomyces cerevisiae
Test: transcriptional activation domain activity (GFP:mCherry ratio, weighted mean of sorted bins, harmonized to initial dataset scale) (arbitrary fluorescence ratio units); higher = stronger transcriptional activation
Settings: beta-estradiol 1 µM; induction time 4 h
Summary of the method: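 The listed activation activity is a read-weighted mean of bin median fluorescence, averaged across barcodes and linearly mapped onto the initial dataset scale. Barcoded tiles, fused to an estradiol-inducible synthetic transcription factor, were integrated at URA3 in yeast diploids bearing a GFP reporter. Cells were held 4 hours at 30 °C in SC with 1 uM beta-estradiol, sorted into 8 GFP:mCherry bins, and sequenced, and tiles with fewer than 50 reads were excluded.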

Row | Sequence | transcriptional activation domain activity
1 | VEQYLHLLPPHSLQEIRWRWRMTKVSRPIPEKMKLVRLNLKAVKHIHLFMKSA | 31500
2 | YYCLLWVRVSIKGQKGAVIAPEQIVIGWVDFHALIIVLWSNRISITLCVARVI | 29200
3 | GQVELFTHHTSLRHIFFRLEKLGYRLVVIQLTDSFVISQPSLYISALLLALRG | 35400
4 | MAQVAVFVVHKFLYGIIPLFEISTCAYFPLLVSLWHLNYLLFYAVMFMRLIIL | 75000
5 | LVGALGPPGGLYSSSAGDTQERRRRREGERALKGFEVGDKWAGEVARRLRRTA | 60100
6 | EEDEEDEDDDDDDDDDDDDDDDDDDEKPVHHKKPAHHRHHHKSKPVHHESQPA | < 6570
7 | VPSDSRRCRLKGVTVFTWWRNVFRQALRHQRWICLQYITSFEREWRSVLAIVR | 44800
8 | EAEARGSGGGGERQRDCERQREPRATRAGGDAGARDGAGARGLARGAAGVAAM | 51700
9 | MLFFFLYIFLCGCFPFWNMSIFFSVIPPFFSFLPLMLLFFFFFGMFGQRINIF | 36300
10 | VGIKVAEDKQQEMRDAGRRTRGARLSSFGNALVIGGGRLSDGYVGTRELKTHV | 50500
11 | ILVLIVSNLRLMIENFRKYGVLICIRCHDYRRQDVVYGSILYFLVPCHLFVAY | 51300
12 | MGQVGVFALHKVLYGIIPLFEIQTCSFYPLLVSLWHIFYLLVYIVMFMRLIIL | 72300
13 | EQLCMPIRRNDMRRRVELVRRCLLAALPSLPFWNEVCLWSTLNVFMSLLQDFF | 82700
14 | FGAIFVELYFIMSSIWFSKIYYMFGFLFLCYGLMILTCATVTILMVYFLLCAE | 60500
15 | MFVVLAMLLVILVVIFIFVIFVLIVLIFVILVMLLMLFFILIVIIAVIVLFFF | 16700
16 | NRVIGVQGKNQEGACYEKLSPSSTSVSVGMDFCSLENFVTAESLPDLLNLFWE | 111000
17 | MPTPSFFCFFLLFLSPMLNMRGDTFTAPLIFSFFVFFFFFFMLSLHFLLVFFS | 46400
18 | EELWTDVDLYNAQFFFIKLLLHFNDPIYGPNTHELLIVMLGQKGGLYPLWQLL | 59700
19 | EKTEKKAKAPKSPKKEKKKEASETAAAPATEEPAKEAAKEEAAPATEAPAATE | 31300
20 | AAPVAEAAPATEAAPASEPSTEAEVPKEEKTEDKKEEKAPKSPKIGRRLSSRV | 17000
21 | PAHSLLELIQLMKRKAFVCWYLFTIVIVLLLLLWIFLSVNYFHCIKPINFNTD | 34800

Row | Sequence | transcriptional activation domain activity
22 | ASSSTPGAHQPTRRSAGAHRSEEHSVVLHLPPGTHRMKFIVDDRWRVSRELPT | 29000
23 | FPIRIYSYVKLKWHLFLFDYCYFASMLNLIYLWILPNSTLLFTICYCAAHGPL | 61800
24 | FGLLIAGWVCFFFFLSPLFPLFPLFPLFFFFFLLVGSPVSVYLWLGFLVWFGL | 32800
25 | VSYVSYVLLFIPFFMLRVFYLSIVTFFLCHIWLHRFGFLVWLWILWCTWGWCN | 54800
26 | MFGKRFIYCLSIIDYGISPHEGITGFILCVCVVYFLECGFCYCWHSRRTSMSW | 64400
27 | SICCALQDWYDYFSTLSYQDTLKSNIWYSLAETEYYWLHLLLFLPHLKRYLTR | 47600
28 | VTSLATARLPAARPRTAVLPARATSAVRRVTCRANAPRTAVRVTAATVPSATR | 45400
29 | DLLAHCKRELVHAIWTLLLDDVFLHAYKYGMVVRCADGVEQRIYPRIFTYSAD | 41200
30 | MEHQDFFGFDYGLFDDNFPITSNSLRYDDLFHFEPLDLEQDDLGWGLPDPSLS | 143000
31 | MAGIVTRVCLILCSPLFPLSLRNFIILHCVYLPLSNSWYISPPFLLYCLQTVY | 62700
32 | IRYLDHTQLLGEPLLKRTFMGGHIFIPTLIDTALCQSYFSSHILDILRHLTFS | 63300
33 | MVLLGSCTLLIGKTITPYILVHKTGILYPLLFFFFFSLSLSFFYFFIGTFPLG | 52100
34 | AHQRTTGASAEEKLALEVVLIMRNDLITHVIVYVLRSFLVYNAPLTGPLAEKL | 55000
35 | AAKPKDRIKYWNIVPGDRVRITGDKEGKLLEVAKINKLSNRVYLKGATTKAGS | 44400
36 | PSLYLVTFFRDSLEMIMISLKYFRYEAHKVVNILPILPDLYTIVRTLVNKCVR | 43700
37 | ITVFNYTVYDIISPTGTNYLAFMCWIGLWSLVFHWILAITNCCNWLRYVTRFP | 32700
38 | MLPSPGETKNHAKSQSEIIQMLTDEFWANYNSGWEELINQSEFSTLFDDYKDN | 116000
39 | MNCGIGFLNFHSQTSFKFLLFILFHFNFFAYLPLLTSCYSRLFSFSFSTIYFI | 61200
40 | GMKRFLPLCFVMYTLWCTTISITWKLICFLSVTADSTPTIQWRLLCMLFWYLF | 33700
41 | VATADVCMVTHFLILLLLAAITGAVLVSVFAFLCVICPPHLRRRPVFMLNLLA | 35400
42 | MGWFTFAFWYPPHLLYFLFYLPPPPLFPSHSLEFFSFCICNLTMFILSTFFFA | 50200

Row | Sequence | transcriptional activation domain activity
43 | MLMLLGKHVLLLIKMISLMDPFQVNILLHRNNPFPAVSFFFYYSFCLFHILHF | 55200
44 | IAIQVMNRVLFFKAFKNVTRYSCAYKLCLVFFFFYIVINGKNFYVIEYAHLSM | 49300
45 | VKAVVICLLICETLQITFFFCATYWLLIDHFGDFNALVVITWHESVQLLAGYL | 45200
46 | RKTGGRSKRTTRGEGKKEEGRSPTKERTTKGARRSKEETRAGGRTSQAEERGK | 33900
47 | RLMKKKKKSSLVFVFNHFRPVYVFLFFFSLYFFPFLSTPYFFPSFFFLFLFWV | 49900
48 | VGKSCGRCRFPICYNPRGTCICCALRSNIVIPWMHFAYRNPHDRKPFVLHFTF | 41700
49 | STVHNLCELVFLPELFGFCCFSMRFFVFIDLLGTLILPATVVYLLYLIITVAT | 62500
50 | PQHCLDLNFMMALLHTGYGMPLEREVKIAKKIKGNELGWCLGASLPLLSKESG | 84000
51 | RFISTRSFLFIFLFDSFFFFSFFFLSLFFFFISFFSFSSFFFFIFTLYLSRAL | 28300
52 | YSHLFNLHTVVFDNYLLYHNAFLLFPLVFCVLPICAIFCFCGMLCNLNRLSGR | 66600
53 | TDDAKAKRKKEKKEKKEKSRSKKSADEGSDNEDGTSEERSKKRKSKSKSKSRS | 30700
54 | MCLRKVSSLFYIGILFVDLFPTTYVSWWFFFFFLCLNLFVLAMICFGVFWFLC | 29300
55 | MTFLHLYFSLSSCLLKTCLSFFVPTPQLLHFTSCIFICFIGTGVFFLYFPFLF | 65700
56 | HRRHHVLLPHPAHTLLKGCFEPAFHNSIWHILSCHMYIPCTPILLLLIIQHVL | 33200
57 | FSAEIAILRWLKGNRQNDYIGALTSINRGLKLMYVHAYQSLVWNRAVSERWAR | 57900
58 | FPSLRLPFCVCLWFRLFVFFFHIGSFVLLVRLFFFFFNFGLFFLFFFLFSFFS | 27500
59 | RGAARCFCVYFFLSLWHFYENHIFFFCSLFFHSLLLCHFFFSFFCVALRLLAC | 33800
60 | AAEEAAVADGECPSKKKRQAELSKQISAKWKGLSPEDRRYWDTLAKEKKREHE | 19500
61 | ASKRKRTEGESKKKEAKRERPKKKSRRDDDDDASGGDELEGKRSRKPKRASAS | 18500
62 | KIHLVNLLQISVLFVHRFIFGLVPLFEITTCAFFPLLISLWHLDYILFYVVMF | 53800
63 | FLPCDPYFLVSFFIQFFLLGFPFCLPLLSFLLLLLSFFHLSLEVFSLLLGDFH | 59400

Row | Sequence | transcriptional activation domain activity
64 | MVWGCAFFISSQFLFPWLLWVFPLSLLSLGLSHTLELDSVFSLLLIFFTIPLF | 34500
65 | FFSSLFIYSFFVFSFSLSLSLCLLPSFFLSCFLSFFAIYYYLVGFLLLLLLLF | 49100
66 | VVTRWILFIVPMLGIVWIPGILSLTTFPHATVWGVKLIWWSIWLSVVWGGWWV | 38300
67 | PKRASQGRNFNTLFDKYFTGKDWEIHIMRTLRPDIFILLCVLFVPTEFKEIHD | 37700
68 | RTTSLGVWFLLIQSLWYCAFGVLYVWFFCQTFESFNTLLVLDYILRFILCLMF | 86900
69 | ADASKWWLLGDSFEADVLTFVSLFQFVNSALIFNYGYIFRQAWYRNYLLVSVW | 56700
70 | KEVAAAEVAPADTAAAEAKPSKKEKKEKEKKPAEGPEGGKKKEKAAGGGGKAA | 24500
71 | VDILLKRISTFSYTDSLTMSVAGQLRILYRFINVFYTARDLIGFLALVEKALD | 22700
72 | LSVSVQGGQLQLRGLNITLTRCHDFMRNIFPLDFPQGRLLALILSLRLFFLST | 84500
73 | IMGLVFRRARRRTVSLVTKYLITETEVVITYIPAVAVAIFPQLNWIYWMIFYP | 65800
74 | SSHCLLENDMFVFFANCSVNQLAMGEDMHHILRLCYSAELIKVLLTYLGRSTF | 56400
75 | KAAEKPAPAVSPSAPAAKAVHHNNNSNAKKQEQQQQQRAKSPAAASASAPAPA | 16600
76 | LGQLLLLLLLLLLLLLLLLLLLLLLLLLLLLLLRRRRRRWWWWRRLLILRIRR | 73200
77 | VRWIRVRKHIVMAATLAEPFTESIVLVVIGSSSLKYLVGLPRWLCILVHFFLL | 35900
78 | MACCNQTWLYIPTNYYFAFLMFGISIVHVLFIQNQGFSRVIFFLFFAWDLFVS | 84600
79 | VLGSEGSNLRCTRYLVVGGPPAMGREVQRFRECECTVMRMTVLIRGAVMWGCR | 57500
80 | TNPAAAVAAAVAAKKTDTEEETTPKEDKAEEAKPEEEKKEEKKEEKAAAKSRS | 33900
81 | PSPVLCFRQLCFLVYLIFFNFLLLFCLFAKAEGGIPSCPLQPLDSLYFSLQGF | 49400
82 | LVRDGILYFFVYTYRNALYQVYVVFGLAAVATLTLNAQLVLNTFLFIIFYVLV | 56900
83 | AAMLLQRVDPNILGNAANVDKTLIHSMAWCLAKIMLFFDPSYITGLLQAYFKL | 46300
